The results in this text go back to PMC11507941 (bioRxiv, 2024).

Residue numbers refer to the chain shown, from its start. Names may count otherwise. Like-named read-outs stand apart in the source and are kept apart here.

Common to all, as to experiment: fluorescence polarisation
Background: Fluorescence polarisation rises when a labelled molecule tumbles more slowly, as on binding a larger partner.

Assay [1] addresses T1, R56K SufS (E. coli, UniProt P77444 1-406, R56K, PLP cofactor (occupancy greater than 90%)).
T1 sequence: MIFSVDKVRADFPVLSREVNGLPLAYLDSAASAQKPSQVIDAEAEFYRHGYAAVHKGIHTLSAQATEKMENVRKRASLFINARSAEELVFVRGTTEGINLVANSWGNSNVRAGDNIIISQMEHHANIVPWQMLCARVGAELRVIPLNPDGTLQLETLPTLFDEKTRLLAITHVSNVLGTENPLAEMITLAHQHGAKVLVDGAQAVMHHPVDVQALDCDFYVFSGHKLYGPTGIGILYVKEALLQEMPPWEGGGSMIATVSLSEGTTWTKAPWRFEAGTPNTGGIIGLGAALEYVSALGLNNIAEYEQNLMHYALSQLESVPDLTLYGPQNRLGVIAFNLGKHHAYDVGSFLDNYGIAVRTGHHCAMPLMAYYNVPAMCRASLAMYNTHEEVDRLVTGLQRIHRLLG

The target in assay [2] is T2, WT SufS (E. coli, UniProt P77444 1-406, PLP cofactor attached to K226 as an internal aldimine).
T2 sequence: T1 sequence with K56R

The target in assay [3] is T3, R56A SufS (E. coli, UniProt P77444 1-406, R56A, PLP cofactor (occupancy greater than 90%)).
T3 sequence: T1 sequence with K56A

Assay [4] has as its target T4, R359K SufS (E. coli, UniProt P77444 1-406, R359K, PLP cofactor (occupancy greater than 90%)).
T4 sequence: T1 sequence with K56R, R359K

The target of assay [5] is T5, R359A SufS (E. coli, UniProt P77444 1-406, R359A, PLP cofactor (occupancy greater than 90%)).
T5 sequence: T1 sequence with K56R, R359A

Assay [6] has as its target T1, R56K SufS. The source holds these as a separate data set.
Assay [7] addresses T2, WT SufS. The source holds these as a separate data set.
Assay [8] addresses T3, R56A SufS. The source holds these as a separate data set.
The target of assay [9] is T4, R359K SufS. This is another data set of the same source.
Assay [10] has as its target T5, R359A SufS. This is another data set of the same source.

B1: BODIPY-FL labeled C51A/E107C SufE (natural protein, E. coli, UniProt P76194 1-138, looked up)
chain: MALLPDKEKLLRNFLRCANWEEKYLYIIELGQRLPELRDEDRSPQNSIQGAQSQVWIVMRQNAQGIIELQGDSDAAIVKGLIAVVFILYDQMTPQDIVNFDVRPWFCKMALTQHLTPSRSQGLEAMIRAIRAKAAALS
modifications: BODIPY FL maleimide label (labelling efficiency 60-80%)
With B1, the Kd – broadly, the constant that tells how readily two partners part at equilibrium – worked out at 2800 ± 300 nM in assay [1]; 200 ± 100 nM in assay [2]; 4000 ± 400 nM in assay [3]; 2800 ± 300 nM in [4]; 300 ± 100 nM in [5]; 8500 ± 1100 nM in assay [6]. Besides, the Kd in [7] was 2500 ± 300 nM; in [8], 5800 ± 900 nM; in [9] it was 4600 ± 500 nM; in assay [10], 900 ± 200 nM.
